Measurements taken from article doi:10.1101/2025.03.24.645041 (2025).

B1: MBP-Vac17(H) [budding yeast] / Strep II-Myo2(1150–1567) [budding yeast] (parent complex)
chain 1: MATQALEDITERLLIRSQEAILQLDLWIQRQQRSSICQTTDQESLDKLSQQYNQYMSQLNSLYVRSESVRDKLSKEQQRRLITEDNEHQRIEDLVREFQDITLRLNELA
chain 2: GVNATQINEELYRLLEDTEILNQEITEGLLKGFEVPDAGVAIQLSKRDVVYPARILIIVLSEMWRFGLTKQSESFLAQVLTTIQKVVTQLKGNDLIPSGVFWLANVRELYSFVVFALNSILTEETFKNGMTDEEYKEYVSLVTELKDDFEALSYNIYNIWLKKLQKQLQKKAINAVVISESLPGFSAGETSGFLNKIFANTEEYTMDDILTFFNSIYWCMKSFHIENEVFHAVVTTLLNYVDAICFNELIMKRNFLSWKRGLQLNYNVTRLEEWCKTHGLTDGTECLQHLIQTAKLLQVRKYTIEDIDILRGICYSLTPAQLQKLISQYQVADYESPIPQEILRYVADIVKKEAALSSSGNDSKGHEHSSSIFITPETGPFTDPFSLIKTRKFDQVEAYIPAWLSLPSTKRIVDLVAQ

Variants of: B1
Assay: pull-down; Strep II-Myo2 tail co-expressed with MBP-Vac17(H) and immobilized on Strep-Tactin beads; normalized to Vac17 and Myo2 input levels; parent: 1; read off a plot

ratio to parent	Variant
~0.4	chain 2 E189R, chain 2 K259A, chain 2 V299A
~0.59	chain 2 K259A, chain 2 R300E
